Results as given in patent US7517652B2, “Methods of diagnosing tumors using the G-protein coupled receptor (GPCR), RAI-3” (Bristol-Myers Squibb Company, priority 2002, dated 2009).

System: Flag-RAI-3
Experiment: Anti-FLAG immunoprecipitation and anti-phosphotyrosine Western blot of A549 cells transiently transfected with Flag-RAI-3
Type: cell-based, human
Conditions: CS-160 1 to 3 hours, EGF 10 nM
Protocol: FIGS. 26A and 26B illustrate the results of Western Blot analysis of an A549 cell line (Human Lung Carcinoma CCL-185, American Type Culture Collection, Manassas, Va.) transiently transfected with a FLAG RAI-3 construct (described herein). Media on the cells was changed to serum-free and 48 hours port-transfection the cells were treated with cigarette smoke-bubbled media (i.e., CS-160, the equivalent of 160 cigarettes per 500 ml of cell medium) for the periods of time shown (1 hr., 2 hr., and 3 hr.) and with EGF (10 nM) for 5 minutes. Lysates were immuno-precipitated with 2 μg of anti-FLAG M2 antibody (Catalog # F-3165, Sigma, Saint Louis, Mo.) and 40 μl of Protein A. The Protein A/lysate/antibody mixture was washed, aspirated “dry”, and 60 μl of 2×SDS-PAGE sample buffer was added. After heating at 95° C. for 10 minutes, the samples were loaded onto two 4-20% gradient gels, resolved by SDS-PAGE and transferred to nitrocellulose by standard Western Blotting techniques.
The A549 cell line (American Type Culture Collection, Manassas, Va.) was plated in 100 mm petri dishes and transfected at about 75% confluency. […]

B1: epidermal growth factor (protein, UniProt P01133 23-1207, looked up)
Pro-epidermal growth factor: PQHWSCPEGTLAGNGNSTCVGPAPFLIFSHGNSIFRIDTEGTNYEQLVVDAGVSVIMDFHYNEKRIYWVDLERQLLQRVFLNGSRQERVCNIEKNVSGMAINWINEEVIWSNQQEGIITVTDMKGNNSHILLSALKYPANVAVDPVERFIFWSSEVAGSLYRADLDGVGVKALLETSEKITAVSLDVLDKRLFWIQYNREGSNSLICSCDYDGGSVHISKHPTQHNLFAMSLFGDRIFYSTWKMKTIWIANKHTGKDMVRINLHSSFVPLGELKVVHPLAQPKAEDDTWEPEQKLCKLRKGNCSSTVCGQDLQSHLCMCAEGYALSRDRKYCEDVNECAFWNHGCTLGCKNTPGSYYCTCPVGFVLLPDGKRCHQLVSCPRNVSECSHDCVLTSEGPLCFCPEGSVLERDGKTCSGCSSPDNGGCSQLCVPLSPVSWECDCFPGYDLQLDEKSCAASGPQPFLLFANSQDIRHMHFDGTDYGTLLSQQMGMVYALDHDPVENKIYFAHTALKWIERANMDGSQRERLIEEGVDVPEGLAVDWIGRRFYWTDRGKSLIGRSDLNGKRSKIITKENISQPRGIAVHPMAKRLFWTDTGINPRIESSSLQGLGRLVIASSDLIWPSGITIDFLTDKLYWCDAKQSVIEMANLDGSKRRRLTQNDVGHPFAVAVFEDYVWFSDWAMPSVMRVNKRTGKDRVRLQGSMLKPSSLVVVHPLAKPGADPCLYQNGGCEHICKKRLGTAWCSCREGFMKASDGKTCLALDGHQLLAGGEVDLKNQVTPLDILSKTRVSEDNITESQHMLVAEIMVSDQDDCAPVGCSMYARCISEGEDATCQCLKGFAGDGKLCSDIDECEMGVPVCPPASSKCINTEGGYVCRCSEGYQGDGIHCLDIDECQLGEHSCGENASCTNTEGGYTCMCAGRLSEPGLICPDSTPPPHLREDDHHYSVRNSDSECPLSHDGYCLHDGVCMYIEALDKYACNCVVGYIGERCQYRDLKWWELRHAGHGQQQKVIVVAVCVVVLVMLLLLSLWGAHYYRTQKLLSKNPKNPYEESSRDVRSRRPADTEDGMSSCPQPWFVVIKEHQDLKNGGQPVAGEDGQAADGSMQPTSWRQEPQLCGMGTEQGCWIPVSSDKGSCPQVMERSFHMPSYGTQTLEGGVEKPHSLLSANPLWQQRALDPPHQMELTQ
modifications: Pro-epidermal growth factor
tyrosine phosphorylation of recombinant Flag-RAI-3 protein: does not appear to cause tyrosine phosphorylation
